Experimental data published in patent JP2001526021A.

Target: ブラジキニン受容体 (bradykinin receptor) on SV-T2 cells
Experiment: cell-based or functional assay

ブラジキニン (bradykinin) (peptide)
PGE2合成 (PGE2 synthesis in SV-T2 cells, ELISA): 4 倍 (fold) | PGE2合成 (PGE2 synthesis in SV-T2 cells, Fig. 7C): 4 倍 (fold)
